For two sequences, IC50 and Kd results are on record in patent publication US20140335568.

Series [1] concerns scFv clone C1 (anti-dsDNA d(AT)4 recombinant antibody) (synthetic (Tomlinson I/J human scFv phage library)). The experiment in a line: ELONA. The conditions noted are these: ELISA.
For series [2] the test system is unchanged. As to the kind of experiment: competition. The conditions noted are these: competition ELISA against immobilized 35 bp dsDNA, 50% reduction, 1.25x10^7 M-1; discussion gives about 50-80 nM.

With “AAAAGACTCACTGTTTGTCTGTCGTTCTAGGATATATAT / ATATATATCCTAGAACGACAGACAAACAGTGAGTC [35 bp dsDNA epitope (ssDNA:ssDNA')]”, the IC50 in series [1] (varying immobilized dsDNA at fixed scFv (3 uM)) turned out to be 31 nM; in series [1] (varying scFv with 25 pmol immobilized dsDNA, single site isotherm, 5xSSCT immobilization, RT) it was 238 nM.
On to “ATATATATCCTAGAACGACAGACAAACAGTGAGTCCGCATTGTTACAT (double strand) [Icomp (Icomp:Icomp')]”, for which, in series [2], the Kd was 80 nM.
